# Read-outs that look alike come from different tables or passages of the source.
# Legend:
# patients with T2DM = assay: Phase 3 pooled analysis (Harmony 2, 4, 5, 8) of efficacy and safety by renal impairment severity, through primary endpoint (26 to 52 weeks)
# Protocol: Patients with T2DM were enrolled in 3 similarly designed Phase 3 studies ^11-13 (Harmony 2, Harmony 4 and Harmony 5) and one Phase 3 study in patients with varying degrees of renal impairment (Harmony 8). ^10 These studies were randomized, double-blind (one open-label), active- (sitagliptin, pioglitazone, or glimepiride) or placebo-controlled, parallel-group, multicenter trials in which albiglutide (30 to 50 mg) was administered once weekly. In all 4 studies, men and nonpregnant women who were ≧18 years of age with a historical diagnosis of T2DM, and who were inadequately controlled (HbA1c≧7.0% and ≦10.0%) on diet and exercise and/or their current regimen of anti-diabetic agents (ie, metformin, thiazolidinedione, sulfonylurea, or any combination of these oral anti-diabetic medications) were eligible to enroll. Additional eligibility criteria included fasting C peptide of ≧0.8 ng/mL (≧0.26 nmol/L) and BMI between 20 and 45 kg/m^2. Harmony 8, the study in CKD patients, required estimated GFR≧15 and <90 mL/min/1.73 m^2, whereas the other 3 studies required estimated GFR>60 mL/min/1.73 m^2. […] Patients who met additional exclusion criteria, including requirements for levels of total bilirubin, alanine aminotransferase, aspartate aminotransferase, amylase, lipase, fasting triglycerides, and hemoglobin were also excluded.
# Efficacy (HbA1c, fasting plasma glucose [FPG] and body weight) was assessed in each of the 4 studies by change from baseline to the primary endpoint (week 26 to week 52) using last observation carried forward for missing data. Rescue medications were allowed in subjects with persistent hyperglycemia (REF), however, efficacy data obtained after hyperglycemic rescue were not included and replaced with pre-rescue values for efficacy evaluation. Safety was assessed by monitoring the incidence of treatment emergent adverse events throughout the studies.
# To evaluate efficacy and tolerability in different renal population, efficacy and tolerability data from patients with pop PK sample across 4 Phase 3 studies were extracted. Descriptive analysis were conducted up to primary endpoint (week 52 for Harmony 2, Harmony 4 and Harmony 5 and week 26 for study Harmony 8). Baseline demographics are summarized by renal impairment severity (normal, mild, moderate and severe). Efficacy parameters such as change from baseline of HbA1c, FPG, weight are also summarized by renal impairment severity. LOCF (Last Observation Carried Forward) approach is used in efficacy evaluation. Except for hypoglycemia, tolerability (AE, SAE and AE cause withdraw) were summarized by renal impairment severity for all data up to primary endpoint including post-rescue data. Hypoglycemia events (severe and documented symptomatic) were evaluated by renal impairment severity only include pre-rescue data.
# [1] = test system: patients with type 2 diabetes; conditions: head-to-head trial; cited from earlier work
# patients with T2D and RI = format: in vivo, human; conditions: for Model-adjusted change from baseline A1C, LS mean (SE): ANCOVA
# Protocol: Therapies for type 2 diabetes mellitus (T2DM) with renal impairment (RI) are limited and may require dose adjustment. This 52-week randomized, double blind, active controlled, Phase III parallel group study examined efficacy/safety of QW Albi injections (30 mg uptitrated to 50 mg if needed) vs daily Sita in patients with T2D and RI (eGFR≧15 and <90 mL/min/1.73 m^2) and A1C 7-10% on lifestyle (11% of subjects) or metformin (Met), thiazoldinedone (TZD), sulfonylureas (SU), or any combination (89% of patients). […] Primary endpoint was A1C change at week 26 for Albi vs Sita (noninferiority with subsequent superiority analysis). Eligible subjects were men or non pregnant, nonlactating women, 18 years of age or older, with a historical diagnosis of T2DM who were experiencing inadequate glycemic control on their current regimen of diet and exercise or their antidiabetic therapy of metformin, TZD, SU, or any combination of these OAD medications.
# [2] = in vivo, cited from earlier work
# [3] = range over renal function groups of the pooled analysis
# [4] = Week 26, Moderate RI (eGFR 30-59)
# [5] = Week 26, Severe RI (eGFR 15-29)
substance,measurement,setting,value
Albiglutide: recombinant fusion protein of 2 copies of modified human GLP-1 (fragment 7-36(A8G)) genetically fused in series to recombinant human serum albumin,neutralizing anti-albiglutide antibodies,patients with T2DM; 4 trials of the pooled analysis,none of the antibodies were neutralizing
same,"Pre-Rescue Hypoglycemia: Documented Symptomatic, With background SU",patients with T2DM; Mild,70 (17) N (%)
same,"Pre-Rescue Hypoglycemia: Documented Symptomatic, Without background SU",patients with T2DM; Mild,3 (1.4) N (%)
same,"Pre-Rescue Hypoglycemia: Severe, With background SU",patients with T2DM; Mild,1 (0.2) N (%)
same,"Pre-Rescue Hypoglycemia: Severe, Without background SU",patients with T2DM; Mild,0 (0) N (%)
same,AEs leading to withdrawal,patients with T2DM; Mild (n = 633),37 (5.8) N (%)
same,Abdominal distention,patients with T2DM; Mild (n = 633),5 (0.8) N (%)
same,Anemia,patients with T2DM; Mild (n = 633),15 (2.4) N (%)
same,Any AE,patients with T2DM; Mild (n = 633),511 (81) N (%)
same,Constipation,patients with T2DM; Mild (n = 633),25 (3.9) N (%)
same,Diarrhea,patients with T2DM; Mild (n = 633),55 (8.7) N (%)
same,Edema peripheral,patients with T2DM; Mild (n = 633),21 (3.3) N (%)
same,Gastrointestinal disorders system organ class: Any event,patients with T2DM; Mild (n = 633),205 (32) N (%)
same,Injection site reaction,patients with T2DM; Mild (n = 633),51 (8.1) N (%)
same,Nasopharyngitis,patients with T2DM; Mild (n = 633),51 (8.1) N (%)
same,Nausea,patients with T2DM; Mild (n = 633),60 (9.5) N (%)
same,Pre-Rescue Hypoglycemia: Documented Symptomatic (overall),patients with T2DM; Mild (n = 633),73 (12) N (%)
same,Pre-Rescue Hypoglycemia: Severe (overall),patients with T2DM; Mild (n = 633),1 (0.2) N (%)
same,Renal Impairment (adverse event),patients with T2DM; Mild (n = 633),0 (0) N (%)
same,Serious AE,patients with T2DM; Mild (n = 633),52 (8.2) N (%)
same,"Pre-Rescue Hypoglycemia: Documented Symptomatic, With background SU",patients with T2DM; Moderate,28 (20) N (%)
same,"Pre-Rescue Hypoglycemia: Documented Symptomatic, Without background SU",patients with T2DM; Moderate,0 (0) N (%)
same,"Pre-Rescue Hypoglycemia: Severe, With background SU",patients with T2DM; Moderate,0 (0) N (%)
same,"Pre-Rescue Hypoglycemia: Severe, Without background SU",patients with T2DM; Moderate,0 (0) N (%)
same,AEs leading to withdrawal,patients with T2DM; Moderate (n = 175),11 (6.3) N (%)
same,Abdominal distention,patients with T2DM; Moderate (n = 175),2 (1.1) N (%)
same,Anemia,patients with T2DM; Moderate (n = 175),5 (2.9) N (%)
same,Any AE,patients with T2DM; Moderate (n = 175),139 (79) N (%)
same,Constipation,patients with T2DM; Moderate (n = 175),11 (6.3) N (%)
same,Diarrhea,patients with T2DM; Moderate (n = 175),23 (13) N (%)
same,Edema peripheral,patients with T2DM; Moderate (n = 175),4 (2.3) N (%)
same,Gastrointestinal disorders system organ class: Any event,patients with T2DM; Moderate (n = 175),58 (33) N (%)
same,Injection site reaction,patients with T2DM; Moderate (n = 175),12 (6.9) N (%)
same,Nasopharyngitis,patients with T2DM; Moderate (n = 175),14 (8.0) N (%)
same,Nausea,patients with T2DM; Moderate (n = 175),13 (7.4) N (%)
same,Pre-Rescue Hypoglycemia: Documented Symptomatic (overall),patients with T2DM; Moderate (n = 175),28 (16) N (%)
same,Pre-Rescue Hypoglycemia: Severe (overall),patients with T2DM; Moderate (n = 175),0 (0) N (%)
same,Renal Impairment (adverse event),patients with T2DM; Moderate (n = 175),3 (1.7) N (%)
same,Serious AE,patients with T2DM; Moderate (n = 175),17 (9.7) N (%)
same,"Pre-Rescue Hypoglycemia: Documented Symptomatic, With background SU",patients with T2DM; Normal,44 (21) N (%)
same,"Pre-Rescue Hypoglycemia: Documented Symptomatic, Without background SU",patients with T2DM; Normal,0 (0) N (%)
same,"Pre-Rescue Hypoglycemia: Severe, With background SU",patients with T2DM; Normal,1 (0.3) N (%)
same,"Pre-Rescue Hypoglycemia: Severe, Without background SU",patients with T2DM; Normal,0 (0) N (%)
same,AEs leading to withdrawal,patients with T2DM; Normal (n = 286),11 (3.8) N (%)
same,Abdominal distention,patients with T2DM; Normal (n = 286),2 (0.7) N (%)
same,Anemia,patients with T2DM; Normal (n = 286),6 (2.1) N (%)
same,Any AE,patients with T2DM; Normal (n = 286),232 (81) N (%)
same,Constipation,patients with T2DM; Normal (n = 286),8 (2.8) N (%)
same,Diarrhea,patients with T2DM; Normal (n = 286),20 (7.0) N (%)
same,Edema peripheral,patients with T2DM; Normal (n = 286),5 (1.7) N (%)
same,Gastrointestinal disorders system organ class: Any event,patients with T2DM; Normal (n = 286),76 (27) N (%)
same,Injection site reaction,patients with T2DM; Normal (n = 286),32 (11) N (%)
same,Nasopharyngitis,patients with T2DM; Normal (n = 286),19 (6.6) N (%)
same,Nausea,patients with T2DM; Normal (n = 286),23 (8.0) N (%)
same,Pre-Rescue Hypoglycemia: Documented Symptomatic (overall),patients with T2DM; Normal (n = 286),44 (15) N (%)
same,Pre-Rescue Hypoglycemia: Severe (overall),patients with T2DM; Normal (n = 286),1 (0.3) N (%)
same,Renal Impairment (adverse event),patients with T2DM; Normal (n = 286),0 (0) N (%)
same,Serious AE,patients with T2DM; Normal (n = 286),17 (5.9) N (%)
same,"Pre-Rescue Hypoglycemia: Documented Symptomatic, With background SU",patients with T2DM; Severe,4 (29) N (%)
same,"Pre-Rescue Hypoglycemia: Documented Symptomatic, Without background SU",patients with T2DM; Severe,0 (0) N (%)
same,"Pre-Rescue Hypoglycemia: Severe, With background SU",patients with T2DM; Severe,0 (0) N (%)
same,"Pre-Rescue Hypoglycemia: Severe, Without background SU",patients with T2DM; Severe,0 (0) N (%)
same,AEs leading to withdrawal,patients with T2DM; Severe (n = 19),2 (11) N (%)
same,Abdominal distention,patients with T2DM; Severe (n = 19),2 (11) N (%)
same,Anemia,patients with T2DM; Severe (n = 19),4 (21) N (%)
same,Any AE,patients with T2DM; Severe (n = 19),12 (63) N (%)
same,Constipation,patients with T2DM; Severe (n = 19),2 (11) N (%)
same,Diarrhea,patients with T2DM; Severe (n = 19),4 (21) N (%)
same,Edema peripheral,patients with T2DM; Severe (n = 19),3 (16) N (%)
same,Gastrointestinal disorders system organ class: Any event,patients with T2DM; Severe (n = 19),8 (42) N (%)
same,Injection site reaction,patients with T2DM; Severe (n = 19),1 (5.3) N (%)
same,Nasopharyngitis,patients with T2DM; Severe (n = 19),1 (5.3) N (%)
same,Nausea,patients with T2DM; Severe (n = 19),3 (16) N (%)
same,Pre-Rescue Hypoglycemia: Documented Symptomatic (overall),patients with T2DM; Severe (n = 19),4 (21) N (%)
same,Pre-Rescue Hypoglycemia: Severe (overall),patients with T2DM; Severe (n = 19),0 (0) N (%)
same,Renal Impairment (adverse event),patients with T2DM; Severe (n = 19),4 (21) N (%)
same,Serious AE,patients with T2DM; Severe (n = 19),0 (0) N (%)
same,treatment effect as measured by HbA1c and FPG vs GFR,"patients with T2DM; change from baseline, scatter plot",trend towards greater reductions as GFR decreased
same,thyroid cancer,patients with T2DM; in vivo,No patient developed thyroid cancer
same,"nausea, percentage",patients with T2DM; mild group,9.5%
same,"vomiting, percentage",patients with T2DM; mild group,3.2%
same,"nausea, percentage",patients with T2DM; moderate group,7.4%
same,"vomiting, percentage",patients with T2DM; moderate group,2.9%
same,"nausea, percentage",patients with T2DM; normal group,8.0%
same,"vomiting, percentage",patients with T2DM; normal group,2.1%
same,subjects with severe hypoglycemic events,"patients with T2DM; normal, mild renal impairment, with background SU use",2
same,patients with probable pancreatitis at least possibly related to study drug,patients with T2DM; one with mild and one with moderate renal impairment,Two
same,"nausea percentage, range",patients with T2DM; [3],7-16%
same,"vomiting percentage, range",patients with T2DM; [3],2-5%
same,incidence of anti-albiglutide antibodies,patients with T2DM; range over the 4 trials of the pooled analysis,2.8% to 8.1
same,"nausea, percentage",patients with T2DM; severe group,16%
same,"vomiting, percentage",patients with T2DM; severe group,5.3%
same,"nausea, percentage",[1],10%
same,"vomiting, percentage",[1],5%
same,"Week 26 A1C, mean",patients with T2D and RI; Any RI (eGFR 15-89),7.27%
same,"Week 26 A1C, mean",patients with T2D and RI; Mild RI (eGFR 60-89 mL/min/1.73 m2),7.23%
same,"Week 26 A1C, mean",patients with T2D and RI; Moderate RI (eGFR 30-59),7.37%
same,"A1C change at week 26, Albi vs Sita, superiority analysis",patients with T2D and RI; P=0.0003,superior
same,"Week 26 A1C, mean",patients with T2D and RI; Severe RI (eGFR 15-29),6.97%
same,"A1C<7% achieved, patients",patients with T2D and RI; Week 26,42.6%
same,FPG change,patients with T2D and RI; Week 26,-25.6 mg/dL
same,weight change,patients with T2D and RI; Week 26,-0.8 kg
same,"Model-adjusted change from baseline A1C, LS mean (SE)","patients with T2D and RI; Week 26, Any RI (eGFR 15-89)",−0.83%
same,"Model-adjusted change from baseline A1C, LS mean (SE)","patients with T2D and RI; Week 26, Mild RI (eGFR 60-89)",−0.80%
same,"Model-adjusted change from baseline A1C, LS mean (SE)",patients with T2D and RI; [4],−0.83%
same,"Model-adjusted change from baseline A1C, LS mean (SE)",patients with T2D and RI; [5],−1.08%
same,"Change from baseline A1C, mean (SD)","patients with T2D and RI; Week 26, Any RI (eGFR 15-89)",−0.82%
same,"Difference of LS means from sitagliptin (95% CI), A1C","patients with T2D and RI; Week 26, Any RI (eGFR 15-89)",0.32%
same,"Difference of LS means from sitagliptin (95% CI), A1C","patients with T2D and RI; Week 26, Any RI (eGFR 15-89), listed as Albi",−0.32%
same,"Change from baseline A1C, mean (SD)","patients with T2D and RI; Week 26, Mild RI (eGFR 60-89)",−0.72%
same,"Difference of LS means from sitagliptin (95% CI), A1C","patients with T2D and RI; Week 26, Mild RI (eGFR 60-89)",−0.13%
same,"Change from baseline A1C, mean (SD)",patients with T2D and RI; [4],−0.88%
same,"Difference of LS means from sitagliptin (95% CI), A1C",patients with T2D and RI; [4],−0.53%
same,"Change from baseline A1C, mean (SD)",patients with T2D and RI; [5],−1.08%
same,"Difference of LS means from sitagliptin (95% CI), A1C",patients with T2D and RI; [5],−0.47%
same,Adverse Event rate: diarrhea,patients with T2D and RI; in vivo,8.8%
same,Adverse Event rate: nausea,patients with T2D and RI; in vivo,4.8%
same,Adverse Event rate: vomiting,patients with T2D and RI; in vivo,1.6%
same,Anti-Albi antibody rate,patients with T2D and RI; in vivo,2.8%
same,"Anti-Albi antibody, neutralizing",patients with T2D and RI; in vivo,0%
same,Hypoglycemia rate,patients with T2D and RI; in vivo,20.5%
same,"Hypoglycemia, severe (number)",patients with T2D and RI; in vivo,0
same,Injection site reaction rate,patients with T2D and RI; in vivo,6.8%
same,On-therapy adverse event: Constipation,patients with T2D and RI; in vivo,15 (6.0) n (%)
same,On-therapy adverse event: Diarrhea,patients with T2D and RI; in vivo,22 (8.8) n (%)
same,On-therapy adverse event: Hypertension,patients with T2D and RI; in vivo,10 (4.0) n (%)
same,On-therapy adverse event: Nasopharyngitis,patients with T2D and RI; in vivo,13 (5.2) n (%)
same,On-therapy adverse event: Upper respiratory tract infection,patients with T2D and RI; in vivo,9 (3.6) n (%)
same,On-therapy adverse event: Urinary tract infection,patients with T2D and RI; in vivo,8 (3.2) n (%)
same,half-life,[2],approximately 5 days
same,half-life,[2]; listed as SEQ ID NO:1,about 5 days
